Patent US20210284740A1

How the values were obtained:
[1] = target: peripheral lymph node addressin (PNAd) expressed on CHO cells; experiment: cell-based ELISA on fixed CHO-PNAd cells, antibody titrated 1 ng/ml to 300 ug/ml, fitted curve
[2] = target: peripheral lymph node addressin (PNAd) expressed on CHO cells; experiment: cell-based ELISA on fixed CHO-PNAd cells, HRP-conjugated secondary antibody, TMB, OD450
[3] = target: peripheral lymph node addressin (PNAd) expressed on CHO cells; experiment: cell-based ELISA on fixed CHO-PNAd cells; compared with the reference MECA79

MECA79 monoclonal antibody
Kd [1]: 1.41 nM
EC50 (read off the curve) [2]: 5 µg/mL

B1: MHA112 monoclonal antibody (mAb) (antibody, mouse IgM, V domains shown)
VH: QVQLKESGPGLVAPSQSLSITCTVSGFSLTSYGVDWVRQPPGKGLEWLGVIWGGGSTNYNSALMSRLSISKDNSKSQVFLKMNSLQTDDTAMYYCAKHSKGGYFDVWGTGTTVTVSS
VL: EIVLTQSPAITAASLGQKVTITCSASSSVSYMHWYQQKSGTSPKPWIYEISKLASGVPARFSGSGSGTSYSLTISSMEAEDAAIYYCQQWNYPLITFGAGTKLELK
binding affinity higher than MECA79 (percent) [3]: 30%
Kd [1]: 0.97 nM
EC50 (read off the curve) [2]: 4 µg/mL
